# Laboratory results reported in patent US20220073643A1.
# Target: Claudin18.2-His protein (human)
# Experiment: indirect ELISA on coated Claudin18.2-His
row,EC50,Binder
1,0.028 µg/mL,"275B2G2 (antibody, V domains shown) VH: EVMLVESGGGLVKPGGSLKLSCAASGFTFRDYTMSWVRQTPEKRLEWVATSIIGGTYTYYPDSVKGRFTISRDNVKNTLYLQMSSLRSEDTAMYYCSRLGRGNAMDYWGQGTSVTVSS VL: DIVMTQSPSSLTVTAGEKVTMSCKSSQSLLNSGNQKNYLTWYQQKPGQPPKLLIYWASTRESGVPDRFTGSGSGTDFTLTISSVQAEDLAVYYCQNDYSYPFTFGSGTKLEIK"
2,0.0232 µg/mL,"292D9C7 (antibody, V domains shown) VH: QVQLKESGPGLVAPSQSLSITCTVSGFSLTDYGVSWIRQPPGKGLEWLGVIWGGGNAYYNSALKSRLSISKDNSKSQVFLKMNSLRTDDTAMYYCAKNGLLRYLDYWGQGSTLTVSS VL: DTVMTQSPSSLTVTAGEKVTMSCKSSQSLLNSGNQKNYLTWYQQKPGQPPKLLIYWASTRESGVPDRFTGSGSGRDFTLTISSVQVEDLAIYYCQNDYYYPLTFGAGTKVELK"
3,0.00554 µg/mL,"407A8G10 (antibody, V domains shown) VH: DVQLVESGGGLVQPGGSRKLSCAASGFTFSGFGMHWIRQTPEKGLEWVAYISSGSRPIYYADTVKGRFTISRDNPKNTLFLQMTSLRSEDTAMYFCARFYYGNSFDHWGQGTLVTVSA VL: DIVMTQSPSFLTVTAGEKVTMSCRSSQSLLNSGNQRNYLTWYQQKPGQPPKLLIYWASTRESGVPDRFTGSGSGTDFALTISSVQAEDLALYYCQNAYSFPLTFGAGTKLELK"
4,0.0156 µg/mL,"370E2B12C3 (antibody, V domains shown) VH: QVQLKESGPGLVAPSQSLSITCTVSGFSLTTYGVHWVRQPPGKGLEWLGVIWAGGSTNYNSALMSRVSINKDNSKSQVFIKMNSLQADDTALYYCARAAYYGNGLDYWGQGTTLTVSS VL: DIVMTQSPSSLTVTAGEKVTMSCKSSQTLLNSGNQKNYLTWYQQKPGQPPKLLIYWASTGESGVPDRFTGSGSGTDFTLTISSVQAEDLAVYFCQNAYFYPFTFGGGTKLEIK"
5,0.0201 µg/mL,"279E8B8 (antibody, V domains shown) VH: QAYLQQSGAELVRSGASVKISCKASGYTFASHNMHWVKQTPGQGLEWIGYIYPGNGGTKYNQKFTGKATLSADTSSSTAYLQISSLTSEDSAVYFCARDYFGNSFVYWGQGTLVTVSA VL: DIVMTQSPSSLTEKAGEKVSMRCKSSQSLLNSGNQKNYLTWYQQKPGQPPKLLIYWASTRESGVPDRFTGSGSGTDFTLTISSVQADDLAVYYCQNDYMYPFTFGAGTKLELK"
6,0.0158 µg/mL,"277F1F8 (antibody, V domains shown) VH: QAYLQQSGPELVRSGASVKMSCKASGYTFTSHNMHWVKQTPGQGLEWIGYINPGNGGNNYNQKFKGKATLTADTSSSTAYMQISSLTSEDSAVYFCARDYYGNSFAFWGQGTLVTVSA VL: DIVMTQSPSSLTETAGEKVSMSCKSSQSLLNSGNQKNYLTWYQQKPGQPPKLLIYWASTRESGVPDRFTGSGSGTDFTLTISSVQAEDLAVYYCQNDYRFPFTFGAGTKLELK"
7,0.0155 µg/mL,"286C7F11 (antibody, V domains shown) VH: QVQLKESGPGLVAPSQSLSITCTVSGFSLTDYGVSWIRQPPGKGLEWLGVIWNRGNTYYNSALKSRLSISKDNSKSQVFLRMNSLQTDDTAMYYCAKHDFLRFLDYWGQGTTLTVSS VL: DVVMTQSPSSLTVTAGEKVTMSCKSSQSLLNSGNQKNYLTWYQQKPGQPPKILIYWASTRESGVPDRFTGSGSGTDFSLTITSVQAEDLAVYYCLNDYYYPLTFGAGTKLELK"
8,0.012 µg/mL,"280F3B6 (antibody, V domains shown) VH: QAYLQQSGAELVRSGASVKMSCKASGYTFTSHNMHWVKQTPGQGLEWIGYIYPGNGGTNYNQKFKGKATLTADTSSSTAYMQISSLTSEDSAVYFCTRDYYGNSFAYWGQGTLVTVSA VL: DIVMTQSPSSLTEKAGERVSMSCKSSQSLFNSGNQKNYLTWYQQKPGQPPKLLIYWASTRESGVPDRFTGSGSGTDFTLTISSVQAEDLAVYYCQNDYWYPFTFGAGTKLELK"
9,0.00199 µg/mL,"405G8F11 (antibody, V domains shown) VH: DVQLVESGGGLVQPGGSRKLSCVTSGFTFSSFGMHWVRQAPEKGLEWVAYISSGSSPIYYADTVKGRFTISRDNPKNTLFLQMSSLRSEDTAMYFCARFYYGNSFAYWGQGTLVTVSA VL: DIVMTQSPSSLTVTAGEKVTMNCKSSQSLLNSGNQKNYLTWYQQKLGQPPKLLMYWASTRESGVPDRFTGSGSGTDFTLTISSVQAEDLAVYFCQSAFSYPLTFGAGTKLELK"
10,0.00846 µg/mL,"394C2G5 (antibody, V domains shown) VH: DVQLVESGGGLVQPGGSRKLSCAASGFTFSGFGMHWIRQTPEKGLEWVAYVSSGSRPIYYADTVKGRFTISRDNPKNTLFLQMTSLRSEDTAMYFCARFYYGNSFDHWGQGTLVTVSA VL: DIVMTQSPSFLTVTAGEKVTMSCKSSQSLLNSGNQKNYLTWYQQKPGQPPKLLIYWASTRESGVPDRFTGSGSGTDFTLTINNVQAEDLALYYCQNAYSFPLTFGAGTKLELT"
11,0.0162 µg/mL,"391H11H3 (antibody, V domains shown) VH: DVQLVESGGGLVQPGGSRKLSCAASGFTFSGFGMHWIRQTPEKGLEWVAYISSGSRPIYYADTVQGRFTISRDNPKNTLFLQMTSLRSEDTAMYFCARFYYGNSFDHWGQGTLVTVSS VL: DIVMTQSPSFLTVTAGEKVTMSCKSSQSLLNSGNQKNYLTWYQQKPGQPPKLLIYWASTRESGVPDRFTGSGSGTDFTLTISSVQAEDLALYYCQNAYSFPLTFGAGTKLELK"
12,0.0315 µg/mL,"198F10B8 (antibody, V domains shown) VH: QAYLQQSGAELVRSGASVRMSCKASGYTFSSYNMHWVKQTPGQGLEWIGYIYPGNGGTNYNQKFKDKATLTADTSSSTAFIQISSLTSEDSAVYFCLTGRGFAYWGQGTLVTVSA VL: DIVMTQSPSSLTVTAGERVTMSCKSSQSLFNSGNQKNYLTWYQQKPGQPPKLLIYRASTRESGVPDRFTGSGSGTDFTLTISSVQAEDLAVYYCQNDYSYPLTFGVGTKLELK"
13,0.00836 µg/mL,"391F1G2 (antibody, V domains shown) VH: DVQLVESGGGLVQPGGSRKLSCAASGFTFSSFGMHWVRQAPEKGLEWVAYISSGSSPIYYADTVKGRFTISRDNPKNTLFLQMTSLRSEDTAMYFCARIYYGNSFAYWGQGTLVTVSA VL: DIVMTQSPSSLTVTAGEKVAMSCKSSQTLLNSGNQKNYLTWYQQKPGQPPKLLLYWASTRESGVPDRFTGSGSGTDFTLTISSVQAEDLAVYYCQNAYYYPLTFGSGTKLELK"
14,0.00955 µg/mL,"406E1H7 (antibody, V domains shown) VH: DVQLVESGGGLVQPGGSRKLSCAASGFTFSGFGMHWIRQTPEKGLEWVAYISSGSRPIYYADTVQGRFTISRDNPKNTLFLQMTSLRSEDTAMYFCARFYYGNSFDHWGQGTLVTVSS VL: DIVMTQSPSFLTVTAGEKVTMSCKSSQSLLNSGNQKNYLTWYQQKPGQPPKLLIYWASTRESGVPDRFTGSGSGTDFTLTISSVQAEDLALYYCQNAYSFPLTFGAGTKLELK"
15,0.0504 µg/mL,"393C2C5 (antibody, V domains shown) VH: DVQLVESGGGLVQPGGSRKLSCAASGFTFSSFGMHWVRQAPEKGLEWVAYISSGSSPIYYADTVKGRFTISRDNPKNTLFLQMTSLRSEDTAMYFCATFYYGNSFAYWGQGTLVTVSA VL: DIVMTQSPSSLTVTAGEKVTMSCKSSQTLLNSGNQKNYLTWYQQKSGQPPKLLIYWASTRESGVPDRFTGSGSGTDFTLTISSVQAEDLAVYYCQNAYSYPVTFGSGTKVELK"
16,0.016 µg/mL,"406F11G8 (antibody, V domains shown) VH: DVQLVESGGGLVQPGGSRKLSCAASGFTFSSFGMHWVRQAPEKGLEWVAYISSGSSPIYYADTVKGRFTISRDNSKNTLFLQMTSLRSEDTAMYFCARIYYGNSFAYWGQGTLVTVSA VL: DIVMTQSPSSLTVTAGEKVAMSCKSSQTLLNSGNQKNYLTWYQQKPGQPPKLLIYWASTRESGVPDRFTGSGSGTDFTLTISSVQAEDLAVYYCQNAYYYPLTFGSGTKLELK"
17,0.021 µg/mL,"392A11C8 (antibody, V domains shown) VH: DVQLVESGGGLVQPGGSRKLSCAASGFTFSGFGMHWIRQTPEKGLEWVAYISSGSRPIYYADTVKGRFTISRDNPKNTLFLQMTSLRSEDTAMYFCARFYYGNSFDHWGQGTLVTVSA VL: DIVMTQSPSFLTVTAGEKVTMSCRSSQSLLNSGNQKNYLTWYQQKPGQPPKLLIYWASTRESGVPDRFTGSGSGTDFTLTISSVQAEDLALYYCQNAYSFPLTFGAGTKLELK"
18,0.00443 µg/mL,"395B3C11 (antibody, V domains shown) VH: DVQLVESGGGLVQPGGSRKLSCAASGFTFSGFGMHWIRQTPEKGLEWVAYISSGSRPIYYADTVQGRFTISRDNPKNTLFLQMTSLRSEDTAMYFCARFYYGNSFDHWGQGTLVTVSS VL: DIVMTQSPSFLTVTAGEKVTMSCKSSQSLLNSGNQKNYLTWYQQKPGQPPKLLIYWASTRESGVPDRFTGSGSGTDFTLTISSVQAEDLALYYCQNAYSFPLTFGAGTKLELK"
19,0.0192 µg/mL,"196A12B10 (antibody, V domains shown) VH: QIQWVQSGPELKKPRETVKISCKASGYTFTDYSMHWVKQAPGKGLKWMGWINSETGEATYADDFRGRFALSLETSATTAFLQINSLKNEDTGTYFCARFYYGNSFASWGQGTTLTVSS VL: DIVMTQFPSSLTVTAGEKVTMTCKSSQSLLNGGNQKNYLTWYQQKPGLPPKLLIYWASTRESGVPDRFTGSGSGTEFTLTISSVQAEDLAVYYCQNNYYFPLTFGAGTKLELK"
20,0.0245 µg/mL,"275H9A2 (antibody, V domains shown) VH: QAYLQQSGAELVRSGASVKMSCRASGYSFTSHNMHWVKQTPGQGLEWIGYIYPGNGGSYYNQKFKGKAILTADTSSSTAYMQISSLTSEDSAVYFCTRDYYGNSFVYWGQGTLVTVSA VL: DVVMTQSPSSLTEKTGEKVSMSCKSSQSLLNSGNQKNYLTWYQQKPGQPPKLLIYWASTRESGVPDRFTGSGSGTDFTLTISSLQTEDLAVYYCQNNFRYPFTFGAGTKLELK"
21,0.0153 µg/mL,"392C2F10 (antibody, V domains shown) VH: EVQLQQSGPELVKPGASMKISCKASGYSFTGYTMNWVKQSLGKNLEWIGLINPFNGGTTYNQKFKGKATLTVDKSSSTAYMELLSLTSDDSAVYYCTRGDYWGQGTTLTVSS VL: DIVMTQSPSSLTVTAGEKVTMSCKSSQSLLNSGNQKNYLTWYQQKPGQPPKLLIYWASTRESGVPDRFAGSGSGTDFTLTISSVQAEDLAVYYCQSDYSYPTFGAGTKLELK"
22,0.00918 µg/mL,"406G3C4 (antibody, V domains shown) VH: EIQLQQSGPELMKPGASVRISCKASGYSFISYYIYWVKQSHGKGLEWIGYIDPFNGNTNYNQKFKGKATLTVDRSSSTAYIHLNSLTSEDSAVYYCAIVNGYGRGAMDYWGQGTSVTVSS VL: QIVLTQSPAIMSASPGEKVTMTCSASSSISYMHWYQQKSGTSPKRWIYDTSKLASGVPARFSGSGSGTSYSLTISSMEAEDAATYYCQQWSSNPLTFGDGTKLELK"
